According to the supplement of paper PMC7877785:
± gives the uncertainty stated by the source.

Test: self-splicing fitness, log relative to wild type (ln ratio); higher = more splicing; Tetrahymena group I intron in knt gene, E. coli kanamycin selection, DiMSum; sequences stand for … in CUCUCU…GGAGGGAAAAGUUAUCAGGCAUGCACCUGGUAGCUAGUCUUUAAACCAAUAGAUUGCAUCGGUUUAAAAGGCAAGACCGUCAAAUUGCGGGAAAGGGGUCAACAGCCGUUCAGUACCAAGUCUCAGGGGAAACUUUGAGAUGGCCUUGCAAAGGGUAUGGUAAUAAGCUGACGGACAUGGUCCUAACCACGCAGCCAAGUCCUAAGUCAACAGAUCUUCUGUUGAUAUGGAUGCAGUUCACAGACUAAAUGUCGGUCGGGGAAGAUGUAUUCUUCUCAUAAGAUAUAGUCGGACCUCUCCUUAAUGGGAGCUAGCGGAUGAAGUGAUGCAACACUGGAGCCGCUGGGAACUAAUUUGUAUGCGAAAGUAUAUUGAUUAGUUUUGGAGUACUCGUGGUCG
Method in brief: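 Library with all eight P1ex-region intron nucleotides randomised, intron inside the knt kanamycin-resistance gene on pET-22b(+), in E. coli BL21(DE3). Cells grew overnight at 37°C or 30°C on LB agar with or without 25 μg/mL kanamycin (plus 100 μg/mL carbenicillin, 50 μM IPTG, 0.2% rhamnose), in six replicate transformations. Pooled colonies were amplicon-sequenced on Illumina HiSeq 2500. DiMSum fitness is the error-weighted combination of wild-type-normalised replicate fold changes, kanamycin versus none.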

Row | Sequence | self-splicing fitness (ln) (30 °C) | self-splicing fitness (ln) (37 °C)
1 | AGGCAGCAAUAUUACGACAG | -1.61 ± 0.18 | -1.54 ± 0.23
2 | AGGCAGCAAUAUUACGAGGU | -2.14 ± 0.15 | -2.68 ± 0.26
3 | AGGCAGCAAUAUUACGAUGC | -3.17 ± 0.15 | -2.8 ± 0.18
4 | AGGCAGCAAUAUUACGCCAA | -0.987 ± 0.25 | -0.179 ± 0.25
5 | AGGCAGCAAUAUUACGCCAG | -0.444 ± 0.14 | -0.82 ± 0.25
6 | AGGCAGCAAUAUUACGCCUC | -3.08 ± 0.33 | –
7 | AGGCAGCAAUAUUACGCGAA | -1.54 ± 0.095 | -0.675 ± 0.13
8 | AGGCAGCAAUAUUACGCGGC | -3.85 ± 0.24 | -2.39 ± 0.17
9 | AGGCAGCAAUAUUACGCUGU | -3.99 ± 0.16 | -3.28 ± 0.2
10 | AGGCAGCAAUAUUACGGAGC | -3.51 ± 0.14 | -3.32 ± 0.26
11 | AGGCAGCAAUAUUACGGAGU | -3.02 ± 0.22 | -2.09 ± 0.16
12 | AGGCAGCAAUAUUACGGAUA | -1.85 ± 0.22 | -2.11 ± 0.22
13 | AGGCAGCAAUAUUACGGCAA | -0.539 ± 0.069 | -1.11 ± 0.085
14 | AGGCAGCAAUAUUACGGCGA | -0.378 ± 0.075 | -0.154 ± 0.091
15 | AGGCAGCAAUAUUACGGGGC | -3.89 ± 0.37 | -2.07 ± 0.23
16 | AGGCAGCAAUAUUACGGGGG | -3.34 ± 0.21 | -2.98 ± 0.23
17 | AGGCAGCAAUAUUACGGUCU | -3.15 ± 0.24 | -2.61 ± 0.25
18 | AGGCAGCAAUAUUACGGUUA | -0.809 ± 0.077 | 0.285 ± 0.08
19 | AGGCAGCAAUAUUACGUAAU | -1.94 ± 0.088 | -0.867 ± 0.088
20 | AGGCAGCAAUAUUACGUACU | -0.408 ± 0.079 | 0.323 ± 0.12
21 | AGGCAGCAAUAUUACGUAUU | -1.41 ± 0.095 | -1.22 ± 0.12
22 | AGGCAGCAAUAUUACGUCAU | -1.87 ± 0.058 | -1.1 ± 0.077
23 | AGGCAGCAAUAUUACGUCGC | -2.48 ± 0.12 | -2.07 ± 0.14
24 | AGGCAGCAAUAUUACGUUAG | -3.85 ± 0.26 | -2.14 ± 0.16
25 | AGGGAGCAAUAUUACGAAUU | – | -0.525 ± 0.18

Row | Sequence | self-splicing fitness (ln) (30 °C) | self-splicing fitness (ln) (37 °C)
26 | AGGGAGCAAUAUUACGAGCU | -3.49 ± 0.29 | –
27 | AGGGAGCAAUAUUACGAUUA | -2.12 ± 0.18 | -2.51 ± 0.35
28 | AGGGAGCAAUAUUACGCACG | -2.17 ± 0.49 | -0.794 ± 0.39
29 | AGGGAGCAAUAUUACGCGGC | -1.89 ± 0.2 | -2.05 ± 0.31
30 | AGGGAGCAAUAUUACGGAGC | -2.84 ± 0.38 | -1.95 ± 0.48
31 | AGGGAGCAAUAUUACGGGCG | -4.23 ± 0.32 | -2.35 ± 0.25
32 | AGGGAGCAAUAUUACGGGGG | -2.67 ± 0.2 | -3.03 ± 0.37
33 | AGGGAGCAAUAUUACGGUCA | -2.38 ± 0.18 | -2.08 ± 0.21
34 | AGGGAGCAAUAUUACGUACA | -2.14 ± 0.18 | -2.46 ± 0.28
35 | AGGGAGCAAUAUUACGUACG | -3.78 ± 0.4 | -2.2 ± 0.42
36 | AGGGAGCAAUAUUACGUAGG | – | -2.14 ± 0.47
37 | AGGGAGCAAUAUUACGUAGU | -3.35 ± 0.23 | -2.19 ± 0.35
38 | AGGGAGCAAUAUUACGUAUA | -3.19 ± 0.42 | –
39 | AGGGAGCAAUAUUACGUGCG | -2.99 ± 0.2 | -2.4 ± 0.29
40 | AGGGAGCAAUAUUACGUUAG | -3.02 ± 0.2 | -3.66 ± 0.37
41 | AGGGAGCAAUAUUACGUUGG | -4.08 ± 0.37 | -2.5 ± 0.33
42 | AGGUAGCAAUAUUACGACCC | -2.38 ± 0.047 | -1.69 ± 0.064
43 | AGGUAGCAAUAUUACGACUC | -0.66 ± 0.018 | -0.19 ± 0.037
44 | AGGUAGCAAUAUUACGACUU | -0.167 ± 0.014 | -0.0309 ± 0.034
45 | AGGUAGCAAUAUUACGAUAU | -1.16 ± 0.014 | -0.423 ± 0.034
46 | AGGUAGCAAUAUUACGAUUC | -1.1 ± 0.015 | -0.359 ± 0.034
47 | AGGUAGCAAUAUUACGAUUU | 0.169 ± 0.014 | 0.0198 ± 0.033
48 | AGGUAGCAAUAUUACGCAGC | -3.808 ± 0.038 | -2.67 ± 0.046
49 | AGGUAGCAAUAUUACGCGAA | -1.61 ± 0.017 | -0.832 ± 0.035
50 | AGGUAGCAAUAUUACGCGCC | -2.6 ± 0.032 | -1.56 ± 0.043

Row | Sequence | self-splicing fitness (ln) (30 °C) | self-splicing fitness (ln) (37 °C)
51 | AGGUAGCAAUAUUACGCGUG | -1.485 ± 0.013 | -0.784 ± 0.032
52 | AGGUAGCAAUAUUACGCUAU | -3.873 ± 0.037 | -3.13 ± 0.047
53 | AGGUAGCAAUAUUACGCUUU | -3.041 ± 0.022 | -1.76 ± 0.036
54 | AGGUAGCAAUAUUACGGCAA | -0.557 ± 0.017 | -0.339 ± 0.034
55 | AGGUAGCAAUAUUACGGCAU | -0.129 ± 0.014 | 0.107 ± 0.033
56 | AGGUAGCAAUAUUACGGCCU | -3.7 ± 0.04 | -2.6 ± 0.053
57 | AGGUAGCAAUAUUACGGCUU | -0.489 ± 0.015 | -0.184 ± 0.034
58 | AGGUAGCAAUAUUACGGGCG | -1.03 ± 0.015 | -0.573 ± 0.034
59 | AGGUAGCAAUAUUACGGUCA | -0.279 ± 0.014 | 0.00808 ± 0.033
60 | AGGUAGCAAUAUUACGGUCC | -0.156 ± 0.017 | 0.00993 ± 0.035
61 | AGGUAGCAAUAUUACGUCGC | -2.37 ± 0.023 | -1.48 ± 0.037
62 | AGGUAGCAAUAUUACGUGAA | -2.213 ± 0.016 | -1.34 ± 0.034
63 | AGGUAGCAAUAUUACGUGAC | -2.734 ± 0.023 | -1.69 ± 0.037
64 | AGGUAGCAAUAUUACGUGGU | -3.697 ± 0.024 | -2.33 ± 0.036
65 | AGGUAGCAAUAUUACGUGUG | -2.883 ± 0.016 | -1.88 ± 0.033
66 | AGGUAGCAAUAUUACGUUAC | -3.617 ± 0.033 | -2.85 ± 0.048
67 | AGGUAGCAAUAUUACGUUUU | -2.585 ± 0.016 | -1.54 ± 0.034
68 | AGUAAGCAAUAUUACGAAAC | -3.94 ± 0.36 | –
69 | AGUAAGCAAUAUUACGAUGU | -3.05 ± 0.15 | -1.17 ± 0.13
70 | AGUAAGCAAUAUUACGAUUG | -2.97 ± 0.29 | -2.54 ± 0.29
71 | AGUAAGCAAUAUUACGAUUU | -0.313 ± 0.1 | -0.0587 ± 0.13
72 | AGUAAGCAAUAUUACGCAUU | -2.48 ± 0.15 | -2.26 ± 0.18
73 | AGUAAGCAAUAUUACGCCUA | -0.00931 ± 0.12 | 0.208 ± 0.12
74 | AGUAAGCAAUAUUACGCGGU | -2.66 ± 0.24 | -2.46 ± 0.29
75 | AGUAAGCAAUAUUACGCUAC | -0.918 ± 0.3 | –

Row | Sequence | self-splicing fitness (ln) (30 °C) | self-splicing fitness (ln) (37 °C)
76 | AGUAAGCAAUAUUACGGAAG | -2.55 ± 0.18 | -2.2 ± 0.21
77 | AGUAAGCAAUAUUACGGAUU | -1.92 ± 0.13 | -0.84 ± 0.16
78 | AGUAAGCAAUAUUACGGGGU | -3.24 ± 0.22 | -2.46 ± 0.26
79 | AGUAAGCAAUAUUACGUAAU | -3.15 ± 0.16 | -2.2 ± 0.17
80 | AGUAAGCAAUAUUACGUAUA | -2.38 ± 0.42 | -1.97 ± 0.28
81 | AGUAAGCAAUAUUACGUCCU | -0.602 ± 0.21 | 0.854 ± 0.23
82 | AGUAAGCAAUAUUACGUCGA | -2.11 ± 0.21 | -1.61 ± 0.2
83 | AGUAAGCAAUAUUACGUCUU | -0.968 ± 0.072 | -0.0602 ± 0.078
84 | AGUAAGCAAUAUUACGUGCU | -2.64 ± 0.23 | -1.2 ± 0.14
85 | AGUAAGCAAUAUUACGUGGU | -4.77 ± 0.29 | -2.59 ± 0.17
86 | AGUAAGCAAUAUUACGUUAA | -2.91 ± 0.21 | -1.63 ± 0.18
87 | AGUAAGCAAUAUUACGUUCG | -1.92 ± 0.14 | -1.17 ± 0.17
88 | AGUCAGCAAUAUUACGAGAC | -4.42 ± 0.39 | -2.56 ± 0.24
89 | AGUCAGCAAUAUUACGAGCC | -0.0313 ± 0.25 | 0.0229 ± 0.3
90 | AGUCAGCAAUAUUACGAGCU | -1.97 ± 0.17 | -0.789 ± 0.19
91 | AGUCAGCAAUAUUACGAGGG | -4.73 ± 0.31 | -3.06 ± 0.25
92 | AGUCAGCAAUAUUACGAGUC | -2.45 ± 0.11 | -1.09 ± 0.11
93 | AGUCAGCAAUAUUACGCACA | -0.062 ± 0.12 | -0.284 ± 0.14
94 | AGUCAGCAAUAUUACGCACC | -0.932 ± 0.12 | 0.383 ± 0.13
95 | AGUCAGCAAUAUUACGCCGG | -2.86 ± 0.48 | –
96 | AGUCAGCAAUAUUACGCCUC | -2.68 ± 0.32 | -1 ± 0.42
97 | AGUCAGCAAUAUUACGCGAG | -1.57 ± 0.16 | -0.523 ± 0.16
